In patent US7314621B2, “Cytidine deaminase” (Kyoto University, priority 1999, dated 2008):

Columns and labels:
AU-rich RNA (5-AU) = assay: Gel retardation assay, avidity to AU-rich RNA; type: binding
Description: Since the AID protein has a functional cytidine deaminase activity as well as a structural similarity to APOBEC-1, to examine RNA editing activity in the AID protein, avidity to AU-rich RNA (5-AU) and apoB RNA (which are RNA substrates for APOBEC-1) was examined.

[1] = Cytidine deaminase activity of the AID protein ([3H]deoxycytidine to deoxyuridine, TLC); type: biochemical; settings: AID-GST fusion protein 2 to 600 ng, pH 7.5, 2 to 4 hours
Procedure: A cytidine deaminase activity of AID was measured by the same method as in the previous report (J Biol. Chem. 270:14768-14775, 1995).
The purified AID-GST fusion protein prepared in the above (2, 4, 6, 8, 10, 20, 40, 60, 100, 200, 300, 400, and 600 ng) was incubated in the buffer (pH 7.5, the total amount 10 μl) containing 45 mM Tris with 3.3 μCi [^3H] deoxycytidine (24.8 Ci/mmol, DuPont) and 250 μM cytidine for 2 to 4 hours. The reaction was terminated by adding deoxycytidine (2 μl of 10 μg/ml) and deoxyuridine (2 μl of 10 μg/ml). Insoluble substances were removed by centrifugation, and the reaction mixture (4 μl) was subjected to the polyethylene imine-cellulose thin layer chromatography plate (VWR). The plate was developed in isopropyl alcohol/10% HCl (7:2 v/v). The plate was exposed to ultraviolet light (254 nm) for visualization and bands corresponding to deoxycytidine and deoxyuridine were collected, and added to Ultima Gold scintillation solution to be quantified by liquid scintillation photometer (Packard)

B1: AID protein: activation-induced cytidine deaminase, novel mouse protein (SEQ ID NO:2), tested as purified GST fusion protein (protein)
chain: MDSLLMKQKKFLYHFKNVRWAKGRHETYLCYVVKRRDSATSCSLDFGHLRNKSGCHVELLFLRYISDWDLDPGRCYRVTWFTSWSPCYDCARHVAEFLRWNPNLSLRIFTARLYFCEDRKAEPEGLRRLHRAGVQIGIMTFKDYFYCWNTFVENRERTFKAWEGLHENSVRLTRQLRRILLPLYEVDDLRDAFRMLGF
modifications: left off: a dimerising Fc or GST
- avidity to AU-rich RNA (5-AU) (AU-rich RNA (5-AU)): did not show avidity
- cytidine deaminase activity [1]: concentration-dependent cytidine deaminase activity
